Laboratory results taken from the RNAGym collection of RNA variant scans (doi:10.1093/nar/gkz1192).

B1: CPEB3 Ribozyme (parent)
chain: UAACAGGGGGCCACAGCAGAAGCGUUCACGUCGCAGCCCCUGUCAGAUUCUGGUGAAUCUGCGAAUUCUGCUGUAUAUCUC

Variants of: B1
Experiment: self-cleavage, relative activity (ratio to wild type); higher = more cleavage; in vitro, sequencing
Procedure, shortened: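 For each CPEB3 ribozyme variant, relative activity is its cleaved/total read fraction divided by the unmutated ribozyme's. Barcoded error-prone PCR libraries were transcribed by T7 RNA polymerase (5 hours, 37°C) and held in DNase I for 15 min before an EDTA stop, with cleavage occurring throughout. Template-switching reverse transcription and Illumina sequencing were used to read the RNAs. A 5-read minimum applied, and results are the mean of three batches.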

Q: For UAACAGGGGGCCACAGCAGAAGCGUUCACGUCGCAGCCCCUGUCAGUUUCUGGUGAAUCUGCGAUUUCUGCUGUAUAUCUC, which self-cleavage is on record?
A: Its self-cleavage is 0.16.

Q: For UAACAGGGGGCCACAGCAGAAGCGUUCACGUCGCAGCCCCUGUCAGUUUCUGGUGAAUCUGCGAGUUCUGCUGUAUAUCUC, which self-cleavage is on record?
A: Its self-cleavage is 0.35.

Q: With UAACAGGGGGCCACAGCAGAAGCGUUCACGUCGCAGCCCCUGUCAGGUUCUGGUGAAUCUGCGAAUUCUGCUGUAAAUCUC as the variant, how does the self-cleavage read?
A: The self-cleavage was 0.98.

Q: For UAACAGGGGGCCACAGCAGAAGCGUUCACGUCGCAGCCCCUGUCAGGUUCUGGUGAAUCUGCGAAUUCUGCUGUAGAUCUC, which self-cleavage is on record?
A: The self-cleavage was 1.16.

Q: Which self-cleavage does the source give for UAACAGGGGGCCACAGCAGAAGCGUUCACGUCGCAGCCCCUGUCAGGUUCUGGUGAAUCUGCGAAUUCUGCUGUACAUCUC here?
A: The self-cleavage was 1.04.

Q: For UAACAGGGGGCCACAGCAGAAGCGUUCACGUCGCAGCCCCUGUCAGGUUCUGGUGAAUCUGCGAAUUCUGCUGGAUAUCUC, which self-cleavage is on record?
A: Its self-cleavage is 1.24.

Q: For UAACAGGGGGCCACAGCAGAAGCGUUCACGUCGCAGCCCCUGUCAGGUUCUGGUGAAUCUGCGAAUUCUGCUGCAUAUCUC, which self-cleavage is on record?
A: Its self-cleavage is 1.13.

Q: For UAACAGGGGGCCACAGCAGAAGCGUUCACGUCGCAGCCCCUGUCAGGUUCUGGUGAAUCUGCGAAUUCUGCUGAAUAUCUC, which self-cleavage is on record?
A: Its self-cleavage is 1.21.

Q: With UAACAGGGGGCCACAGCAGAAGCGUUCACGUCGCAGCCCCUGUCAGUUUCUGGUGAAUCUGCGAAUUCUGCUGUAUAUUUC as the variant, how does the self-cleavage read?
A: The self-cleavage was 0.52.

Q: With UAACAGGGGGCCACAGCAGAAGCGUUCACGUCGCAGCCCCUGUCAGUUUCUGGUGAAUCUGCGAAUUCUACUGUAUAUCUC as the variant, how does the self-cleavage read?
A: The self-cleavage was 0.13.

Q: Which self-cleavage does the source give for UAACAGGGGGCCACAGCAGAAGCGUUCACGUCGCAGCCCCUGUCAGUUUCUGGUGAAUCUGCGAAUUCUUCUGUAUAUCUC here?
A: The self-cleavage was 0.14.

Q: For UAACAGGGGGCCACAGCAGAAGCGUUCACGUCGCAGCCCCUGUCAGUUUCUGGUGAAUCUGCGUAUUCUGCUGUAUAUCUC, which self-cleavage is on record?
A: The self-cleavage was 0.26.

Q: For UAACAGGGGGCCACAGCAGAAGCGUUCACGUCGCAGCCCCUGUCAGUUUCUGGUGAAUCUGCGGAUUCUGCUGUAUAUCUC, which self-cleavage is on record?
A: The self-cleavage was 0.37.

Q: For UAACAGGGGGCCACAGCAGAAGCGUUCACGUCGCAGCCCCUGUCAGGUUCCGGUGAAUCUGCGAAUUCUGCUGUAUAUCUC, which self-cleavage is on record?
A: Its self-cleavage is 0.94.

Q: For UAACAGGGGGCCACAGCAGAAGCGUUCACGUCGCAGCCCCUGUCAGGUUCGGGUGAAUCUGCGAAUUCUGCUGUAUAUCUC, which self-cleavage is on record?
A: Its self-cleavage is 0.79.

Q: For UAACAGGGGGCCACAGCAGAAGCGUUCACGUCGCAGCCCCUGUCAGGUUCAGGUGAAUCUGCGAAUUCUGCUGUAUAUCUC, which self-cleavage is on record?
A: The self-cleavage was 0.98.

Q: Which self-cleavage does the source give for UAACAGGGGGCCACAGCAGAAGCGUUCACGUCGCAGCCCCUGUCAGGGUCUGGUGAAUCUGCGAAUUCUGCUGUAUAUCUC here?
A: Its self-cleavage is 0.26.

Q: With UAACAGGGGGCCACAGCAGAAGCGUUCACGUCGCAGCCCCUGUCAGGAUCUGGUGAAUCUGCGAAUUCUGCUGUAUAUCUC as the variant, how does the self-cleavage read?
A: Its self-cleavage is 0.23.

Q: With UAACAGGGGGCCACAGCAGAAGCGUUCACGUCGCAGCCCCUGUCAGGCUCUGGUGAAUCUGCGAAUUCUGCUGUAUAUCUC as the variant, how does the self-cleavage read?
A: The self-cleavage was 0.31.

Q: For UAACAGGGGGCCACAGCAGAAGCGUUCACGUCGCAGCCCCUGUCAGGUUCUGGUGAAUCUGCGAAUUCUGCGGUAUAUCUC, which self-cleavage is on record?
A: The self-cleavage was 0.35.

Q: With UAACAGGGGGCCACAGCAGAAGCGUUCACGUCGCAGCCCCUGUCAGGUUCUGGUGAAUCUGCGAAUUCUGCAGUAUAUCUC as the variant, how does the self-cleavage read?
A: The self-cleavage was 0.64.

Q: For UAACAGGGGGCCACAGCAGAAGCGUUCACGUCGCAGCCCCUGUCAGGUUCUGGUGAAUCUGCGAAUUCUGCCGUAUAUCUC, which self-cleavage is on record?
A: Its self-cleavage is 1.12.

Q: Which self-cleavage does the source give for UAACAGGGGGCCACAGCAGAAGCGUUCACGUCGCAGCCCCUGUCAGUUUAUGGUGAAUCUGCGAAUUCUGCUGUAUAUCUC here?
A: Its self-cleavage is 0.23.

Q: With UAACAGGGGGCCACAGCAGAAGCGUUCACGUCGCAGCCCCUGUCAGGUUCUGGUGAAACUGCGAAUUCUGCUGUAUAUCUC as the variant, how does the self-cleavage read?
A: The self-cleavage was 0.57.

Q: With UAACAGGGGGCCACAGCAGAAGCGUUCACGUCGCAGCCCCUGUCAGGUUCUGGUGAACCUGCGAAUUCUGCUGUAUAUCUC as the variant, how does the self-cleavage read?
A: The self-cleavage was 1.1.

Q: With UAACAGGGGGCCACAGCAGAAGCGUUCACGUCGCAGCCCCUGUCAGGUUCUGGUGAAGCUGCGAAUUCUGCUGUAUAUCUC as the variant, how does the self-cleavage read?
A: Its self-cleavage is 0.29.

Q: With UAACAGGGGGCCACAGCAGAAGCGUUCACGUCGCAGCCCCUGUCAGGUUCUGGUGAAUCCGCGAAUUCUGCUGUAUAUCUC as the variant, how does the self-cleavage read?
A: Its self-cleavage is 0.37.

Q: For UAACAGGGGGCCACAGCAGAAGCGUUCACGUCGCAGCCCCUGUCAGGUUCUGGUGAAUCAGCGAAUUCUGCUGUAUAUCUC, which self-cleavage is on record?
A: The self-cleavage was 0.41.

Q: For UAACAGGGGGCCACAGCAGAAGCGUUCACGUCGCAGCCCCUGUCAGGUUCUGGUGAAUCGGCGAAUUCUGCUGUAUAUCUC, which self-cleavage is on record?
A: Its self-cleavage is 0.41.

Q: For UAACAGGGGGCCACAGCAGAAGCGUUCACGUCGCAGCCCCUGUCAGUUUCUGGUGAAUCUGCGAAUUCUGCUGUAUGUCUC, which self-cleavage is on record?
A: Its self-cleavage is 0.37.

Q: For UAACAGGGGGCCACAGCAGAAGCGUUCACGUCGCAGCCCCUGUCAGUUUCUGGUGAAUCUGCGAAUUCUGCUGUAUUUCUC, which self-cleavage is on record?
A: The self-cleavage was 0.71.

Q: With UAACAGGGGGCCACAGCAGAAGCGUUCACGUCGCAGCCCCUGUCAGGUUCUGGUGAAUCUGCGAAUUCUGCUUUAUAUCUC as the variant, how does the self-cleavage read?
A: Its self-cleavage is 1.26.

Q: For UAACAGGGGGCCACAGCAGAAGCGUUCACGUCGCAGCCCCUGUCAGGUUCUGGUGAAUCUGCGAAUUCGGCUGUAUAUCUC, which self-cleavage is on record?
A: The self-cleavage was 0.68.

Q: With UAACAGGGGGCCACAGCAGAAGCGUUCACGUCGCAGCCCCUGUCAGGUUCUGGUGAAUCUGCGAAUUCCGCUGUAUAUCUC as the variant, how does the self-cleavage read?
A: Its self-cleavage is 0.57.
